B1: Syntaxin-6 (Homo sapiens), O43752 (parent)
chain: MSMEDPFFVVKGEVQKAVNTAQGLFQRWTELLQDPSTATREEIDWTTNELRNNLRSIEWDLEDLDETISIVEANPRKFNLDATELSIRKAFITSTRQVVRDMKDQMSTSSVQALAERKNRQALLGDSGSQNWSTGTTDKYGRLDRELQRANSHFIEEQQAQQQLIVEQQDEQLELVSGSIGVLKNMSQRIGGELEEQAVMLEDFSHELESTQSRLDNVMKKLAKVSHMTSDRRQWCAIAILFAVLLVVLILFLVL
partner: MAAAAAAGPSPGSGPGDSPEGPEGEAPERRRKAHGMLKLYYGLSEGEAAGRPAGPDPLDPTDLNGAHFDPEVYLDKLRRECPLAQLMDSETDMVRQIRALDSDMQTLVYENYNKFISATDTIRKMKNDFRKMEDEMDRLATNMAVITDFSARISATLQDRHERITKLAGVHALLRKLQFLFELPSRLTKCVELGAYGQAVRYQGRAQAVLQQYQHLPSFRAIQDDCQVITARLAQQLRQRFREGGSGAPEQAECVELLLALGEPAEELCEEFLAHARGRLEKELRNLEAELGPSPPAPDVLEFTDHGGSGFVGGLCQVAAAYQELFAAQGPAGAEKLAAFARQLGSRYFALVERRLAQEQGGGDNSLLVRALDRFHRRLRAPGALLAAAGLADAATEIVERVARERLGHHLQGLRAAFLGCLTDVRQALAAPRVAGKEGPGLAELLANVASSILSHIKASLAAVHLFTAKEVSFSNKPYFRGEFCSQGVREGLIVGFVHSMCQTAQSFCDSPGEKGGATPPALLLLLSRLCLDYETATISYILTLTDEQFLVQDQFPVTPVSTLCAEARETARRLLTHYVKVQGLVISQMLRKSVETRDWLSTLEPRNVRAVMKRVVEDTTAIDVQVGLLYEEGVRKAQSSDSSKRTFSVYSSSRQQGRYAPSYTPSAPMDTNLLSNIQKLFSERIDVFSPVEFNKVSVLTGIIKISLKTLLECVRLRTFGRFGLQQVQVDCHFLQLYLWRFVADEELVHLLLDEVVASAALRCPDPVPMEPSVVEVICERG
B2: Syntaxin-10 (Homo sapiens), O60499-1 (parent)
chain: MSLEDPFFVVRGEVQKAVNTARGLYQRWCELLQESAAVGREELDWTTNELRNGLRSIEWDLEDLEETIGIVEANPGKFKLPAGDLQERKVFVERMREAVQEMKDHMVSPTAVAFLERNNREILAGKPAAQKSPSDLLDASAVSATSRYIEEQQATQQLIMDEQDQQLEMVSGSIQVLKHMSGRVGEELDEQGIMLDAFAQEMDHTQSRMDGVLRKLAKVSHMTSDRRQWCAIAVLVGVLLLVLILLFSL
partner: B1 partner
B3: Vacuolar protein sorting-associated protein 51 homolog (Homo sapiens), Q9UID3-1 (parent)
chain: B1 partner
partner: B1 chain
B4: Vacuolar protein sorting-associated protein 51 homolog (Homo sapiens), Q9UID3-1 (parent)
chain: B1 partner
partner: B2 chain

In the first experiment the parent is B1. The settings on record: with VPS51, Q9UID3-1.
On to MSMEDAFFVVKGEVQKAVNTAQGLFQRWTELLQDPSTATREEIDWTTNELRNNLRSIEWDLEDLDETISIVEANPRKFNLDATELSIRKAFITSTRQVVRDMKDQMSTSSVQALAERKNRQALLGDSGSQNWSTGTTDKYGRLDRELQRANSHFIEEQQAQQQLIVEQQDEQLELVSGSIGVLKNMSQRIGGELEEQAVMLEDFSHELESTQSRLDNVMKKLAKVSHMTSDRRQWCAIAILFAVLLVVLILFLVL [P6A], for which the “effect of a mutation on the interaction” value is “disrupting interaction strength”.

Turning to MSMEDPFFVVKGEVQKAVNTAQGLFQRWTELLQDPSTATREEIDWTTNELRNNLRSIEWDLEDLDETISIVEANPRKFNLDATELSIMKAFITSTRQVVRDMKDQMSTSSVQALAERKNRQALLGDSGSQNWSTGTTDKYGRLDRELQRANSHFIEEQQAQQQLIVEQQDEQLELVSGSIGVLKNMSQRIGGELEEQAVMLEDFSHELESTQSRLDNVMKKLAKVSHMTSDRRQWCAIAILFAVLLVVLILFLVL [R88M], the “effect of a mutation on the interaction” value was “disrupting interaction strength”. MSMELPFFVVKGEVQKAVNTAQGLFQRWTELLQDPSTATREEIDWTTNELRNNLRSIEWDLEDLDETISIVEANPRKFNLDATELSIRKAFITSTRQVVRDMKDQMSTSSVQALAERKNRQALLGDSGSQNWSTGTTDKYGRLDRELQRANSHFIEEQQAQQQLIVEQQDEQLELVSGSIGVLKNMSQRIGGELEEQAVMLEDFSHELESTQSRLDNVMKKLAKVSHMTSDRRQWCAIAILFAVLLVVLILFLVL [D5L]: the “effect of a mutation on the interaction” value is listed as “disrupting interaction strength”. Consider MSMEDPLFVVKGEVQKAVNTAQGLFQRWTELLQDPSTATREEIDWTTNELRNNLRSIEWDLEDLDETISIVEANPRKFNLDATELSIRKAFITSTRQVVRDMKDQMSTSSVQALAERKNRQALLGDSGSQNWSTGTTDKYGRLDRELQRANSHFIEEQQAQQQLIVEQQDEQLELVSGSIGVLKNMSQRIGGELEEQAVMLEDFSHELESTQSRLDNVMKKLAKVSHMTSDRRQWCAIAILFAVLLVVLILFLVL [F7L], for which the “effect of a mutation on the interaction” value is reported as “disrupting interaction strength”.

Variants of B2 are the subject of a further experiment. To be noted: with VPS51, Q9UID3-1.
MSLEDPLFVVRGEVQKAVNTARGLYQRWCELLQESAAVGREELDWTTNELRNGLRSIEWDLEDLEETIGIVEANPGKFKLPAGDLQERKVFVERMREAVQEMKDHMVSPTAVAFLERNNREILAGKPAAQKSPSDLLDASAVSATSRYIEEQQATQQLIMDEQDQQLEMVSGSIQVLKHMSGRVGEELDEQGIMLDAFAQEMDHTQSRMDGVLRKLAKVSHMTSDRRQWCAIAVLVGVLLLVLILLFSL [F7L]: the “effect of a mutation on the interaction” value is listed as “disrupting interaction strength”. On to MSLEDAFFVVRGEVQKAVNTARGLYQRWCELLQESAAVGREELDWTTNELRNGLRSIEWDLEDLEETIGIVEANPGKFKLPAGDLQERKVFVERMREAVQEMKDHMVSPTAVAFLERNNREILAGKPAAQKSPSDLLDASAVSATSRYIEEQQATQQLIMDEQDQQLEMVSGSIQVLKHMSGRVGEELDEQGIMLDAFAQEMDHTQSRMDGVLRKLAKVSHMTSDRRQWCAIAVLVGVLLLVLILLFSL [P6A], for which the “effect of a mutation on the interaction” value is given as “disrupting interaction strength”. As to MSLEDPFFVVRGEVQKAVNTARGLYQRWCELLQESAAVGREELDWTTNELRNGLRSIEWDLEDLEETIGIVEANPGKFKLPAGDLQEMKVFVERMREAVQEMKDHMVSPTAVAFLERNNREILAGKPAAQKSPSDLLDASAVSATSRYIEEQQATQQLIMDEQDQQLEMVSGSIQVLKHMSGRVGEELDEQGIMLDAFAQEMDHTQSRMDGVLRKLAKVSHMTSDRRQWCAIAVLVGVLLLVLILLFSL [R88M], the “effect of a mutation on the interaction” value was “disrupting interaction strength”. Regarding MSLELPFFVVRGEVQKAVNTARGLYQRWCELLQESAAVGREELDWTTNELRNGLRSIEWDLEDLEETIGIVEANPGKFKLPAGDLQERKVFVERMREAVQEMKDHMVSPTAVAFLERNNREILAGKPAAQKSPSDLLDASAVSATSRYIEEQQATQQLIMDEQDQQLEMVSGSIQVLKHMSGRVGEELDEQGIMLDAFAQEMDHTQSRMDGVLRKLAKVSHMTSDRRQWCAIAVLVGVLLLVLILLFSL [D5L], the “effect of a mutation on the interaction” value is “disrupting interaction strength”.

The variants in a further experiment derive from B3. The settings on record: with stx6_human STX6, O43752.
For the variant Y40A;Y41A, the “effect of a mutation on the interaction” value is listed as “disrupting interaction strength”.

In a further experiment the parent is B3. To be noted: with stx6_human STX6, O43752. This is another data set of the same source.
As for Y41A, the “effect of a mutation on the interaction” value is recorded as “disrupting interaction strength”. As for L37A, the “effect of a mutation on the interaction” value is “disrupting interaction strength”.

As for Y40A, the “effect of a mutation on the interaction” value is reported as “disrupting interaction strength”.

The variants in another experiment derive from B4. To be noted: with STX10, O60499-1.
On to L37A, for which the “effect of a mutation on the interaction” value was “disrupting interaction strength”. Same read-out and setting: next, Y40A: “disrupting interaction strength”; Y41A: “disrupting interaction strength”.

Another experiment covers variants of B4. The settings on record: with STX10, O60499-1. The source holds these as a separate data set.
With Y40A;Y41A, the “effect of a mutation on the interaction” value is listed as “disrupting interaction strength”.
